Laboratory results: paper doi:10.1101/2021.05.10.443412 (bioRxiv, 2021)

What was measured:
Test in all cases: ITC
FIH-1 E250A = FIH-1 E250A (human, UniProt Q9NWT6 1-349, Glu250 replaced with Ala)
FIH-1 E29A = FIH-1 E29A (human, UniProt Q9NWT6 1-349, Glu29 replaced with Ala)
FIH-1 N171A = FIH-1 N171A (human, UniProt Q9NWT6 1-349, Asn171 replaced with Ala)
FIH-1 D248A = FIH-1 D248A (human, UniProt Q9NWT6 1-349, Asp248 replaced with Ala)
FIH-1 E79A = FIH-1 E79A (human, UniProt Q9NWT6 1-349, Glu79 replaced with Ala)
[1] = molecular target: factor inhibiting HIF-1 (FIH-1), full-length (human, UniProt Q9NWT6 1-349)
FIH-1 Y71A = FIH-1 Y71A (human, UniProt Q9NWT6 1-349, Tyr71 replaced with Ala)
FIH-1 K75A = FIH-1 K75A (human, UniProt Q9NWT6 1-349, Lys75 replaced with Ala)
Chain of FIH-1 K75A (Q9NWT6 whole entry K75A): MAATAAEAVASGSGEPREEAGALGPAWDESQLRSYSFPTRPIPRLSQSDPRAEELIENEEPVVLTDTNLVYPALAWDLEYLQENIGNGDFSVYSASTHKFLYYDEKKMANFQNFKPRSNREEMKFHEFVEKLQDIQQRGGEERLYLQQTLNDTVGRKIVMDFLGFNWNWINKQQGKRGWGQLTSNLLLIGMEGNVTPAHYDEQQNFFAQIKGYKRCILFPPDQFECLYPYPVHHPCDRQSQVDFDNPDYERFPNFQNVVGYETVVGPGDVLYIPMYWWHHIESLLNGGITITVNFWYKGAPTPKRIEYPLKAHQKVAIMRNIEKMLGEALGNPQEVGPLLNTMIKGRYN

Chain of factor inhibiting HIF-1 (FIH-1), full-length (Q9NWT6 whole entry): as the sequence (Q9NWT6 whole entry K75A) above, with A75K counted along it
Chain of FIH-1 D248A (Q9NWT6 whole entry D248A): as the sequence (Q9NWT6 whole entry K75A) above, with A75K, D248A counted along it
Chain of FIH-1 Y71A (Q9NWT6 whole entry Y71A): as the sequence (Q9NWT6 whole entry K75A) above, with Y71A, A75K counted along it
Chain of FIH-1 N171A (Q9NWT6 whole entry N171A): as the sequence (Q9NWT6 whole entry K75A) above, with A75K, N171A counted along it
Chain of FIH-1 E29A (Q9NWT6 whole entry E29A): as the sequence (Q9NWT6 whole entry K75A) above, with E29A, A75K counted along it
Chain of FIH-1 E79A (Q9NWT6 whole entry E79A): as the sequence (Q9NWT6 whole entry K75A) above, with A75K, E79A counted along it
Chain of FIH-1 E250A (Q9NWT6 whole entry E250A): as the sequence (Q9NWT6 whole entry K75A) above, with A75K, E250A counted along it

| Binder | dH [1] | stoichiometry N [1] | Kd [1] | other results |
| --- | --- | --- | --- | --- |
| Mint3NT, N-terminal fragment (1-214) of Mint3 (domain or fragment) MDFPTISRSPSGPPAMDLEGPRDILVPSEDLTPDSQWDPMPGGPGSLSRMELDESSLQELVQQFEALPGDLVGPSPGGAPCPLHIATGHGLASQEIADAHGLLSAEAGRDDLLGLLHCEECPPSQTGPEEPLEPAPRLLQPPEDPDEDSDSPEWVEGASAEQEGSRSSSSSPEPWLETVPLVTPEEPPAGAQSPETLASYPAPQEVPGPCDHED | -32.2 ± 0.7 kcal/mol | 0.48 ± 0.02 | – | binding result (FIH-1 E250A): binds; binding result (FIH-1 E29A): binds; binding result (FIH-1 N171A): binds; binding result (FIH-1 D248A): binds; binding result (FIH-1 E79A): binds; binding result (FIH-1 Y71A): binds; binding result (FIH-1 K75A): binds |
| Mint3NTmut (domain or fragment) MDFPTISRSPSGPPAMDLEGPRDILVPSEDLTPDSQWDPMPGGPGSLSRMELDESSLQELVQQFEALPGDLVGPSPGGAPCPLHIATGHGLASQEIADAHAAASAAAGRDDLLGLLHCEECPPSQTGPEEPLEPAPRLLQPPEDPDEDSDSPEWVEGASAEQEGSRSSSSSPEPWLETVPLVTPEEPPAGAQSPETLASYPAPQEVPGPCDHED | -13.9 kcal/mol | ~0.5 | 1310 nM | – |
| Mint3 (1-117) (domain or fragment) MDFPTISRSPSGPPAMDLEGPRDILVPSEDLTPDSQWDPMPGGPGSLSRMELDESSLQELVQQFEALPGDLVGPSPGGAPCPLHIATGHGLASQEIADAHGLLSAEAGRDDLLGLLH | – | ~0.5 | 650 ± 70 nM | – |
| Mint3 fragment (1-92) (domain or fragment) MDFPTISRSPSGPPAMDLEGPRDILVPSEDLTPDSQWDPMPGGPGSLSRMELDESSLQELVQQFEALPGDLVGPSPGGAPCPLHIATGHGLA | – | ~0.5 | – | – |
| SQEIADAHGLLSAEAGRDDLLGLLH [short peptide of Mint3 (93-117)] | – | ~0.5 | 3000 ± 600 nM | – |
